Assay results published in patent publication US7595158B2, “Bcl2L12 polypeptide activators and inhibitors” (Dana-Farber Cancer Institute, Inc., priority 2003, dated 2009).
Each block holds one molecule with its values, some of them ahead of it.

What was measured:
cytochrome c release = assay: Cytochrome c release in STS-treated astrocytes; type: cell-based
Description: To determine whether Bcl2L12 polypeptides inhibit the apoptogenic activity of mitochondria, cytochrome c release in STS-treated astrocytes over-expressing Bcl2L12-V5 polypeptides was assessed and compared to astrocytes transfected with a LacZ control vector. An anti-tubulin immunoblot was performed as a loading control. Suboptimal concentrations of digitonin were used to allow for selective permeabilization of the plasma membrane, but not of the intracellular membranes. […] This is consistent with the inability of Bcl2L12-V5 polypeptides to localize to mitochondria.

Apaf-1 polypeptide = target: T1, Apaf-1 polypeptide (Homo sapiens, UniProt O14727); assay: Co-immunoprecipitation of endogenous Apaf-1 in 293T cells; type: binding; details: anti-V5 immunoprecipitation from 293T cells
T1 construct: endogenous in cells; host or cells: 293T
T1 sequence (O14727 1-1248): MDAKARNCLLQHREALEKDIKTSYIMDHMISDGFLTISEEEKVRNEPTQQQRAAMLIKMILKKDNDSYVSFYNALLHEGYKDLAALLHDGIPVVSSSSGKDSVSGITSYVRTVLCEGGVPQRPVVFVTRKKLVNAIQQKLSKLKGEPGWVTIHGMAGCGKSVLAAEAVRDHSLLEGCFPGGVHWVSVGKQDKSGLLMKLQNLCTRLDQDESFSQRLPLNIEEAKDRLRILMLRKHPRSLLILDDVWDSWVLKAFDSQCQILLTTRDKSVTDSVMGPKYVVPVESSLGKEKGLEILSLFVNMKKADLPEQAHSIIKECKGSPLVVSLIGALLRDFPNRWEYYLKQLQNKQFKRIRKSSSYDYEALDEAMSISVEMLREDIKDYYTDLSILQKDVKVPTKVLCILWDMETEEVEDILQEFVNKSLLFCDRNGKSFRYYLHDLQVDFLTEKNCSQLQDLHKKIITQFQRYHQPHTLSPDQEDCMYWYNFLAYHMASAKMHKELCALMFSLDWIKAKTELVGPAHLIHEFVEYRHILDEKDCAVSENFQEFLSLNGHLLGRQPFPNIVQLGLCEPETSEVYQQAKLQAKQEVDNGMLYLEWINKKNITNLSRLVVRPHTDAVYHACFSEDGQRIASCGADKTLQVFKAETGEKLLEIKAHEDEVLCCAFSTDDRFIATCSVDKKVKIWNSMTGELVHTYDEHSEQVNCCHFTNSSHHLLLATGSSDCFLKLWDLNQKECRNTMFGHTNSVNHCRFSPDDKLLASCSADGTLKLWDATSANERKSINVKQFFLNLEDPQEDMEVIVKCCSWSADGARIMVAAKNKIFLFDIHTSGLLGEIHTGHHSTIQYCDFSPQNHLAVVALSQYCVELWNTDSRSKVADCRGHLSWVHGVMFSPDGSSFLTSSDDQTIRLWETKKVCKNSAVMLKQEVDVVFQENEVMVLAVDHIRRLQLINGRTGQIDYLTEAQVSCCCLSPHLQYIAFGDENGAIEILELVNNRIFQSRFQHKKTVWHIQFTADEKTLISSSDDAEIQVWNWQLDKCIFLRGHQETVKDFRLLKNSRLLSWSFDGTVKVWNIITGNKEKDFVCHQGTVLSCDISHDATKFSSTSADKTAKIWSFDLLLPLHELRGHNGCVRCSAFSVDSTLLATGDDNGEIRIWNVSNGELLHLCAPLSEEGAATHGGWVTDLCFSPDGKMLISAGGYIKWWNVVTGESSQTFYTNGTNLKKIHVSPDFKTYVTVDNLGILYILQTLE
Description: To confirm this interaction, 293T cells were used to test the physical interaction between Apaf-1 and Bcl2L12 polypeptides in vivo. […] To test the association between Apaf-1 and Bcl2L12 polypeptides in vivo, Bcl2L12-V5 polypeptides were expressed in 293T cells and immunoprecipitated with an anti-V5 antibody. The amount of co-immunoprecipitated endogenous Apaf-1 polypeptide then was determined by Western blot analysis.
To assess whether the BH2 domain is necessary for Apaf-1 binding, Bcl2L12-V5-ΔBH2 polypeptides were immunoprecipitated from 293T cells, and co-immunoprecipitated Apaf-1 was quantified as described.

association with Apaf-1 polypeptide (Apaf-1 polypeptide): found to be associated
B1: Bcl2L12-V5: Bcl2L12 polypeptide having the V5 epitope tag, ectopically expressed from pBabe-Bcl2L12-V5 vector; human amino acid sequence 1-334 (protein)
chain: MGRPAGLFPPLCPFLGFRPEACWERHMQIERAPSVPPFLRWAGYRPGPVRRRGKVELIKFVRVQWRRPQVEWRRRRWGPGPGASMAGSEELGLREDTLRVLAAFLRRGEAAGSPVPTPPRSPAQEEPTDFLSRLRRCLPCSLGRGAAPSESPRPCSLPIRPCYGLEPGPATPDFYALVAQRLEQLVQEQLKSPPSPELQGPPSTEKEAILRRLVALLEEEAEVINQKLASDPALRSKLVRLSSDSFARLVELFCSRDDSSRPSRACPGPPPPSPEPLARLALAMELSRRVAGLGGTLAGLSVEHVHSFTPWIQAHGGWEGILAVSPVDLNLPLD
modifications: left off: small tags and cut ends
cytochrome c release (cytochrome c release): did not block cytochrome c release

B2: Bcl2L12-V5-ΔBH2: V5 tagged mutant lacking amino acid residues 311-334 (BH2 domain) of human Bcl2L12; sequence 1-310 (protein)
chain: MGRPAGLFPPLCPFLGFRPEACWERHMQIERAPSVPPFLRWAGYRPGPVRRRGKVELIKFVRVQWRRPQVEWRRRRWGPGPGASMAGSEELGLREDTLRVLAAFLRRGEAAGSPVPTPPRSPAQEEPTDFLSRLRRCLPCSLGRGAAPSESPRPCSLPIRPCYGLEPGPATPDFYALVAQRLEQLVQEQLKSPPSPELQGPPSTEKEAILRRLVALLEEEAEVINQKLASDPALRSKLVRLSSDSFARLVELFCSRDDSSRPSRACPGPPPPSPEPLARLALAMELSRRVAGLGGTLAGLSVEHVHSFTP
modifications: left off: small tags and cut ends
cytochrome c release (cytochrome c release): exhibited cytochrome c release
association with Apaf-1 polypeptide (Apaf-1 polypeptide): bound comparable levels of Apaf-1 polypeptide
